# Key:
# [1] = molecular target: T1, human Sdc2 (human, UniProt P34741 19-144, limits assumed); assay: Octet tandem binning; saturating Ab m3 19844-R3-P1-C02 (row boxed, self-self >0.09)
# T1 construct: Antigen of the Octet tandem binning, loaded on biosensors at 100 nM; also called huSdc2; hSdc2
# [2] = molecular target: T1, human Sdc2; assay: Octet tandem binning; saturating Ab f12 19838-6-N03-A
# [3] = molecular target: T1, human Sdc2; assay: Octet tandem binning; saturating Ab f4 19844-R3-P3-C11
# Procedure, shortened: (§1)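 Octet sensors bearing 100 nM human Sdc2 got a 240 s saturating-antibody dip at 25 μg/ml and then a 180 s competitor dip at 5 μg/ml. Signal ratios are relative to buffer in place of the saturating step.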
# [4] = molecular target: T2, mouse Sdc2 (mouse, UniProt P43407 19-145, limits assumed); assay: Octet BLI, heading box over the sensorgram
# T2 construct: Immobilised on Maxisorp plates for panning and ELISA; also called mSdc2; moSdc2
# [5] = molecular target: T1, human Sdc2; assay: Octet BLI, heading box over the sensorgram
# [6] = molecular target: T1, human Sdc2; assay: Octet tandem binning; saturating Ab m7 19844-R3-P1-E07
# [7] = molecular target: T1, human Sdc2; assay: Octet tandem binning; saturating Ab f10 19838-10-I12-A
# [8] = molecular target: T1, human Sdc2; assay: Octet tandem binning; saturating Ab m8 19844-R4M-P1-B01 (marked non-binding ligand)
# [9] = molecular target: T3, pig Sdc2 (pig, UniProt F1S0L5 19-145); assay: Octet BLI, HIS1K sensor loaded with pigSdc2, antibody as sample; Full R2 0.9632
# T3 construct: also called pSdc2
# Experimental: (§2) In order to characterize the binding affinity and in vivo/in vitro functional ability of the twelve clones generated by the previous studies and disclosed in Table 1, a series of assays were performed on each clone. These assays measured the affinity of each antibody clone for human, pig, and mouse Sdc2 using an Octet® binding assay system. Additionally, the functional ability of each clone to inhibit VEGFA-driven permeability (see Santiago, et al. (2021) J Am Heart Assoc. 10(18):e020521) was assessed in two therapeutic settings: a “prevention” study in which three concentrations of antibody (5 μg/ml, 10 μg/ml, 15 μg/ml, 20 μg/ml, and/or 40 μg/ml depending on the study) were pre-incubated for an hour before administration of 100 ng/ml of VEGFA, and a “treatment” study in which 3 hours of pre-treatment with 100 ng/ml VEGFA were followed by treatment with antibody at 20 μg/ml or 40 μg/ml. Results are shown for 8-G17 in FIG. 8 and FIG. 9, 20-H19-AB in FIG. 10 and FIG. 11 (FIG. 12 for monkey ECs), R3-P3-C11 in FIG. 13 and FIG. 14, R4M-P3-E06 in FIG. 15 and FIG. 16, R3-P3-E09 in FIG. 17 and FIG. 18, R3-P1-C02 in FIG. 19 and FIG. 20, R3-P3-A12 in FIG. 21 and FIG. 22, R4M-P3-A12 in FIG. 23 and FIG. 24, and R4M-P1-A10 in FIG. 25 and FIG. 26.
# [10] = molecular target: T1, human Sdc2; assay: Octet tandem binning; saturating Ab f9 19838-6-E17-A
# [11] = molecular target: T1, human Sdc2; assay: Octet tandem binning; saturating Ab f3 19838-6N03-A
# [12] = molecular target: T1, human Sdc2; assay: Octet tandem binning; Buffer in place of a saturating Ab
# [13] = molecular target: T1, human Sdc2; assay: Octet tandem binning; saturating Ab m2 19838-8G17-A
# [14] = molecular target: T1, human Sdc2; assay: Octet tandem binning; saturating Ab m1 19838-20H19-AB
# [15] = molecular target: T3, pig Sdc2; assay: Octet BLI, heading box over the sensorgram; the box prints nm, the table gives 2.71E-09 M
# [16] = molecular target: T1, human Sdc2; assay: Octet tandem binning; saturating Ab f6 19844-R3-P3-E09
# Procedure, shortened: as §1
# [17] = molecular target: T1, human Sdc2; assay: Kd (human Sdc2), summary table of the mAbs
# [18] = molecular target: T1, human Sdc2; assay: Octet tandem binning; saturating Ab m5 19844-R4M-P3-A12 (row boxed, self-self >0.09)
# Procedure, shortened: as §1
# [19] = molecular target: T1, human Sdc2; assay: Octet tandem binning; saturating Ab f8 19844-R4M-P2-C02
# [20] = molecular target: T1, human Sdc2; assay: Octet tandem binning; saturating Ab f7 19844-R3-P3-A12
# [21] = molecular target: T1, human Sdc2; assay: Octet tandem binning; saturating Ab m6 19838-20H19-AA (marked non-binding ligand)
# [22] = molecular target: human Sdc2 on Human Umbilical Vein Endothelial Cells (HUVEC) (human, UniProt P34741 19-201); assay: cell-based or functional assay
# [23] = molecular target: T1, human Sdc2; assay: Octet BLI, HIS1K sensor loaded with huSdc2, antibody as sample; Full R2 0.9628
# Experimental: as §2
# [24] = molecular target: T1, human Sdc2; assay: Octet tandem binning; saturating Ab f5 19844-R4M-P3-E06
# [25] = molecular target: T1, human Sdc2; assay: Octet tandem binning; saturating Ab f11 19838-20-H19-A
# T1 sequence (P34741 19-144 limits assumed): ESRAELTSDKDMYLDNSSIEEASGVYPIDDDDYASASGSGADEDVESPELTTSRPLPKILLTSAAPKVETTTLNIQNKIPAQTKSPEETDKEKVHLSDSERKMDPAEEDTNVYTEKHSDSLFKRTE
# T2 sequence (P43407 19-145 limits assumed): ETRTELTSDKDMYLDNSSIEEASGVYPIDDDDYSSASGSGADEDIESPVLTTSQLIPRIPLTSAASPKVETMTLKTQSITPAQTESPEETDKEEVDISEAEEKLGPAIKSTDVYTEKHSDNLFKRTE
# human Sdc2 on Human Umbilical Vein Endothelial Cells (HUVEC), sequence (P34741 19-201 limits assumed): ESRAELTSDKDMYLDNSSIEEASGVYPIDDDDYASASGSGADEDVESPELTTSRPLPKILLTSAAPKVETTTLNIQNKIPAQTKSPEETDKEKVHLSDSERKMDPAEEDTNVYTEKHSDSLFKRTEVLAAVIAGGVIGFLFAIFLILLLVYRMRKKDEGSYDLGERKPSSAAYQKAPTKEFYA
binder,measurement,setting,value
"R4M-P1-A10 (antibody, human IgG1, kappa, V domains shown) VH: EVQLVETGGGVVQPGRSLRLSCAASGFTFSSYAMHWVRQAPGKGLEWVAVISYDGSNKYYADSVKGRFTISRDNSKNTLYLQMNSLRAEDTAVYYCARDRGWADAFDIWGQGTMVTVSS VL: QAGLTQPPSVSKGLRQTATLTCTGNSNNVGYQGAVWLLQYQGHPPKVLSNRNNDRPSGISERLSASRSGNTASLTITGLQPEDEGDYFCAAWDGSLRGWVFGGGTKLTVLR",raw competing-Ab binding signal,[1],0.255
same,raw competing-Ab binding signal,[2],0.406
same,raw competing-Ab binding signal,[3],0.193
same,Kd,[4],~1.85 nM
same,Kd,[5],~1.82 nM
same,raw competing-Ab binding signal,[6],0.353
same,raw competing-Ab binding signal,[7],0.418
same,raw competing-Ab binding signal,[8],0.355
same,Kd,[9],2.71 nM
same,koff,[9],0.00459 s⁻¹
same,kon,[9],1.69e+06 M⁻¹ s⁻¹
same,raw competing-Ab binding signal,[10],0.34
same,raw competing-Ab binding signal,[11],0.362
same,raw competing-Ab binding signal,[12],0.337
same,raw competing-Ab binding signal,[13],0.377
same,raw competing-Ab binding signal,[14],0.439
same,Kd,[15],~2.71 nM
same,raw competing-Ab binding signal,[16],0.203
same,Kd,[17],1.82 nM
same,raw competing-Ab binding signal,[18],0.302
same,raw competing-Ab binding signal,[19],0.211
same,raw competing-Ab binding signal,[20],0.246
same,raw competing-Ab binding signal,[21],0.32
same,% Inhibition of VEGFA-induced permeability at 24hrs (20ug/ml),[22],100%
same,Kd,[23],1.82 nM
same,koff,[23],0.00663 s⁻¹
same,kon,[23],3.65e+06 M⁻¹ s⁻¹
same,raw competing-Ab binding signal,[24],0.358
same,raw competing-Ab binding signal,[25],0.444

# From patent US20250282885A1 (VST BIO, published 2025)
